How the values were obtained:
[1] = target: T1, PD1 on activated human CD4 and CD8 T cells (human, UniProt Q15116 25-288); assay: flow cytometry, CD3/CD28-activated human PBMCs gated on CD3+CD8+ T cells, FITC anti-mouse Fc secondary antibody; no Matriptase digestion described
T1 construct: whole, on cells; Endogenous PD1 on CD3/CD28-stimulated T cells; also called human PD1; PD1 receptor
Experimental: (§1) PBMCs were bought from Biomex from a healthy donor (Lot 5000899PB). The PBMCs were stimulated for 3 days with CD3 and CD28 to induce upregulation of PD1 on T cells. Therefore, PBMCs were seeded in medium (RPMI1640, 10% FCS, 2 mM Glutamine) into cell culture flasks that were coated for 1 h at 37° C. with 1 μg/ml CD3 (clone OKT3, 302914, BioLegend). CD28 was added in solution to the PBMCs at a concentration of 1 μg/ml (clone CD28.2, 302914, BioLegend). After three days, PBMCs were harvested and transferred into a 96 well round bottom plate (200′000 cells per well). The cells were washed with FACS buffer (PBS, 2% FBS, 5 mM EDTA, 0.025% NaN3) and stained with 30 μl of corresponding TA PD1-IL2v constructs in FACS buffer for 30 min at 4° C. The cells were washed twice with FACS buffer to remove unbound molecules. Then 30 μl of the diluted FITC anti-mouse Fc specific secondary antibody (1:50 dilution, 115-096-071, Jackson ImmunoResearch) or for the human constructs the diluted FITC anti-human Fc specific secondary antibody (1:50 dilution, 115-096-098, Jackson ImmunoResearch) was added to the cells. After 30 min incubation at 4° C. the cells were washed twice with FACS buffer. […] Finally the cells were resuspended in 150 μl FACs buffer and measured using a BD Fortessa gating on CD3+CD4+ cells (CD4 T cells) and CD3+CD8+ cells (CD8 T cells).

[2] = target: T1, PD1 on activated human CD4 and CD8 T …; assay: flow cytometry, CD3/CD28-activated human PBMCs gated on CD3+CD4+ T cells, FITC anti-mouse Fc secondary antibody; no Matriptase digestion described
Experimental: as §1

T1 sequence (Q15116 25-288): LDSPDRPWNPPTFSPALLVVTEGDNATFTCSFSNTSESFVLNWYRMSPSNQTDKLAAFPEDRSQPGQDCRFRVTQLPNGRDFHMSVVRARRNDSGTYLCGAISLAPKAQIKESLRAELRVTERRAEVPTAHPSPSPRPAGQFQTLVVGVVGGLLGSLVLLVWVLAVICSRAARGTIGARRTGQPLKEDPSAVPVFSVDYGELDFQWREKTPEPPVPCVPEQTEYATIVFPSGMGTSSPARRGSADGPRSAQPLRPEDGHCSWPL

| Binder | EC50 (read off the curve) [1] [nM] | EC50 (read off the curve) [2] [nM] |
| --- | --- | --- |
| murine TA PD1-IL2v, MT204, 2xPQARK, in line (antibody, mouse IgG1, kappa, Murine surrogate: bivalent human PD1-targeted murine IgG DA PG with masked human IL2v in-line on the C-terminus of the Fc DD- chain, two PQARK sites; also called P1AG9983; P1AG9983-001) light: KIVLTQSPASLPVSLGQRATISCRASESVDTSDNSFIHWYQQRPGQSPKLLIYRSSTLESGVPARFSGSGSRTDFTLTIDPVEADDVATYYCQQNYDVPWTFGGGTKLEIKRADAAPTVSIFPPSSEQLTSGGASVVCFLNNFYPKDINVKWKIDGSERQNGVLNSWTDQDSKDSTYSMSSTLTLTKDEYERHNSYTCEATHKTSTSPIVKSFNRNEC heavy 1: EVILVESGGGLVKPGGSLKLSCAASGFSFSSYTMSWVRQTPEKRLDWVATISGGGRDIYYPDSVKGRFTISRDNAKNTLYLEMSSLMSEDTALYYCVLLTGRVYFALDSWGQGTSVTVSSAKTTPPSVYPLAPGSAAQTNSMVTLGCLVKGYFPEPVTVTWNSGSLSSGVHTFPAVLQSDLYTLSSSVTVPSSTWPSQTVTCNVAHPASSTKVDKKIVPRDCGCKPCICTVPEVSSVFIFPPKPKDVLTITLTPKVTCVVVAISKDDPEVQFSWFVDDVEVHTAQTKPREEQINSTFRSVSELPIMHQDWLNGKEFKCRVNSAAFGAPIEKTISKTKGRPKAPQVYTIPPPKKQMAKDKVSLTCMITNFFPEDITVEWQWNGQPAENYKNTQPIMKTDGSYFVYSKLNVQKSNWEAGNTFTCSVLHEGLHNHHTEKSLSHSPG heavy 2: EVILVESGGGLVKPGGSLKLSCAASGFSFSSYTMSWVRQTPEKRLDWVATISGGGRDIYYPDSVKGRFTISRDNAKNTLYLEMSSLMSEDTALYYCVLLTGRVYFALDSWGQGTSVTVSSAKTTPPSVYPLAPGSAAQTNSMVTLGCLVKGYFPEPVTVTWNSGSLSSGVHTFPAVLQSDLYTLSSSVTVPSSTWPSQTVTCNVAHPASSTKVDKKIVPRDCGCKPCICTVPEVSSVFIFPPKPKDVLTITLTPKVTCVVVAISKDDPEVQFSWFVDDVEVHTAQTKPREEQINSTFRSVSELPIMHQDWLNGKEFKCRVNSAAFGAPIEKTISKTKGRPKAPQVYTIPPPKEQMAKDKVSLTCMITNFFPEDITVEWQWNGQPAENYDNTQPIMDTDGSYFVYSDLNVQKSNWEAGNTFTCSVLHEGLHNHHTEKSLSHSPGGGGGSGGGGSGGGGGAPASSSTKKTQLQLEHLLLDLQMILNGINNYKNPKLTRMLTAKFAMPKKATELKHLQCLEEELKPLEEVLNGAQSKNFHLRPRDLISNINVIVLELKGSETTFMCEYADETATIVEFLNRWITFAQSIISTLTGGGGSGGGGSPQARKGGGGSGGGGSGGGGSGGGGSGGGEVQLVESGGGLVQPGGSLRLSCAASGFTFSSYTLAWVRQAPGKGLEWVAAIDSSSYTYSPDTVRGRFTISRDNAKNSLYLQMNSLRAEDTAVYYCARDSNWDALDYWGQGTTVTVSSGGGGSGGPQARKGGGGSGGGDIQMTQSPSSLSASVGDRVTITCKASQNVGTNVGWYQQKPGKAPKALIYSASFRYSGVPSRFSGSGSGTDFTLTISSLQPEDFATYYCQQYYTYPYTFGGGTKVEIK | ~2 | ~2 |
| murine PD1-IL2v, unmasked, in line (antibody, mouse IgG1, kappa, Murine surrogate: bivalent human PD1-targeted murine IgG DA PG with IL2v fused to the C-terminus of the Fc DD- chain (non-masked control); also called P1AG7552; P1AG7552-006) light: KIVLTQSPASLPVSLGQRATISCRASESVDTSDNSFIHWYQQRPGQSPKLLIYRSSTLESGVPARFSGSGSRTDFTLTIDPVEADDVATYYCQQNYDVPWTFGGGTKLEIKRADAAPTVSIFPPSSEQLTSGGASVVCFLNNFYPKDINVKWKIDGSERQNGVLNSWTDQDSKDSTYSMSSTLTLTKDEYERHNSYTCEATHKTSTSPIVKSFNRNEC heavy 1: EVILVESGGGLVKPGGSLKLSCAASGFSFSSYTMSWVRQTPEKRLDWVATISGGGRDIYYPDSVKGRFTISRDNAKNTLYLEMSSLMSEDTALYYCVLLTGRVYFALDSWGQGTSVTVSSAKTTPPSVYPLAPGSAAQTNSMVTLGCLVKGYFPEPVTVTWNSGSLSSGVHTFPAVLQSDLYTLSSSVTVPSSTWPSQTVTCNVAHPASSTKVDKKIVPRDCGCKPCICTVPEVSSVFIFPPKPKDVLTITLTPKVTCVVVAISKDDPEVQFSWFVDDVEVHTAQTKPREEQINSTFRSVSELPIMHQDWLNGKEFKCRVNSAAFGAPIEKTISKTKGRPKAPQVYTIPPPKKQMAKDKVSLTCMITNFFPEDITVEWQWNGQPAENYKNTQPIMKTDGSYFVYSKLNVQKSNWEAGNTFTCSVLHEGLHNHHTEKSLSHSPG heavy 2: EVILVESGGGLVKPGGSLKLSCAASGFSFSSYTMSWVRQTPEKRLDWVATISGGGRDIYYPDSVKGRFTISRDNAKNTLYLEMSSLMSEDTALYYCVLLTGRVYFALDSWGQGTSVTVSSAKTTPPSVYPLAPGSAAQTNSMVTLGCLVKGYFPEPVTVTWNSGSLSSGVHTFPAVLQSDLYTLSSSVTVPSSTWPSQTVTCNVAHPASSTKVDKKIVPRDCGCKPCICTVPEVSSVFIFPPKPKDVLTITLTPKVTCVVVAISKDDPEVQFSWFVDDVEVHTAQTKPREEQINSTFRSVSELPIMHQDWLNGKEFKCRVNSAAFGAPIEKTISKTKGRPKAPQVYTIPPPKEQMAKDKVSLTCMITNFFPEDITVEWQWNGQPAENYDNTQPIMDTDGSYFVYSDLNVQKSNWEAGNTFTCSVLHEGLHNHHTEKSLSHSPGGGGGSGGGGSGGGGGAPASSSTKKTQLQLEHLLLDLQMILNGINNYKNPKLTRMLTAKFAMPKKATELKHLQCLEEELKPLEEVLNGAQSKNFHLRPRDLISNINVIVLELKGSETTFMCEYADETATIVEFLNRWITFAQSIISTLT | ~2 | ~2 |

— US20240376171A1 (Hoffmann-La Roche, published 2024)
